Data taken from patent US20250042994A1 (HAINAN SIMCERE ZAIMING PHARMACEUTICAL, published 2025).

T1: human CD19 exon1-3-His tag protein (human, UniProt P15391 20-186, limits assumed)
T1 construct: membrane-distal part of the extracellular region, made in HEK293E cells; not shown: His tag
T1 sequence (looked up): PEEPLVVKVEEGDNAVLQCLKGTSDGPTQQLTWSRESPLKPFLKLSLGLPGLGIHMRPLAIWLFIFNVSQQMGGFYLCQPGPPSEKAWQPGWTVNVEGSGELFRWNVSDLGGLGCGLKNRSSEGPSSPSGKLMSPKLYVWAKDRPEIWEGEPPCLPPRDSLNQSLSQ

T2: Human CD19-his protein (human, UniProt P15391 20-291)
T2 construct: bought protein; also called recombinant human CD19-His; CD19 full-length protein; not shown: His tag
T2 sequence (looked up): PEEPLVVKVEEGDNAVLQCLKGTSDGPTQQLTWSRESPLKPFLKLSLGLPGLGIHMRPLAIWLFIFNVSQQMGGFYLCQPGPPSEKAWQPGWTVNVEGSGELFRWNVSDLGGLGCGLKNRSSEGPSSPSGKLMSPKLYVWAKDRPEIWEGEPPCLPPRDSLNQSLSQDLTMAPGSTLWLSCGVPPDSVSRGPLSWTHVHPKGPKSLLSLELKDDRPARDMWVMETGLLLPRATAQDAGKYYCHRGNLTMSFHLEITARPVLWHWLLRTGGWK


How the values were obtained:
[1] = biological target: T1, human CD19 exon1-3-His tag protein; assay: ELISA on coated human CD19 exon 1-3-His
Human CD19-his protein = biological target: T2, Human CD19-his protein; assay: SPR Biacore, Ab captured on Protein A, CD19-His analyte
Procedure, shortened: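 Antibodies were captured on a Protein A chip at 25 °C in HBS-EP+. Human CD19-His was injected for 240 s at 30 μl/min at 5 concentrations from 200 nM (1:1 dilutions), with dissociation up to 600 s. Data were double-referenced and fitted to a Langmuir 1:1 model for apparent KD.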

Binder	binding result [1]	Kd (Human CD19-his protein) [nM]	koff (Human CD19-his protein) [s⁻¹]	kon (Human CD19-his protein) [M⁻¹ s⁻¹]
F4.4.6 (antibody, human IgG1, V domains shown, human-murine chimeric antibody, human IgG1 constant) VH: QVQLQQSGAELARPGASVKLSCKASGYTFTSYWMQWVKQRPGQGLEWIGAIYPGDGDSRYTQKFKGKATLTADKSSSTAYMQLSSLASEDSAVYYCARSTTTVLGNNFEYWGQGTTLTVSS VL: QIVLTQSPAIMSALPGEKVTMTCSASSSVSSMHWYQQKSGTSPKRWIYDTSKLASGVPARFSGSGSGTSYSLTISSMEAEDAATYYCQQWSSNPWTFGGGTKLEIK	no binding (tested: 100 nM)	9.47	0.0019	201000
F4.15.9 (antibody, human IgG1, V domains shown, human-murine chimeric antibody, human IgG1 constant) VH: QVQLQQSGPELVKPGASVKISCKASGYAFSSSWMNWLKQRPGQGLEWIGRIYPGDGDTNYNGKFKGKATLTADESSSTAYMQLSSLTSVDSAVYFCARGITTIITIAWFASWGQGTLVTVSA VL: QIVLSQSPTILSASPGEKVTMTCRASSSVSYMHWYQQKPGSSPKPWIYATSNLASGVPPRFSGSGSGTSYSLTISRVGAEDAATYYCQQWSSDPWTFGGGTKLEIK	no binding (tested: 100 nM)	2.72	0.000949	348000
F4.18.13 (antibody, human IgG1, V domains shown, human-murine chimeric antibody, human IgG1 constant) VH: QVQLQQSGPELVKPGASVKISCKASGYAFSSFWMNWVKQRPGEGLEWIGRIYPGDGDTNYNGKFKGKATLTADDSSSTAYMQLSSLTSVDSAVYFCAREVIAAVVTTDFDYWGQGTTLTVSS VL: DIQMTQTTSSLSASLGDRVTISCRTSQDISNYLNWYLQKPDGTVKLLIYYTSGLHSGVPSRFSGSGSGTDYSLTISNLEPEDIATYFCQQGKTLPYTFGGGTKLEIK	no binding (tested: 100 nM)	0.362	0.000171	472000
F4.21.2 (antibody, human IgG1, V domains shown, human-murine chimeric antibody, human IgG1 constant) VH: QVQLKQSGPGLVQPSQSLSITCTVSGFSLSTYGVHWVRQSPGRGLEWLGVIWIGGTTDYNAAFISRLTISKDNSRGQVFFKMDSLQANDTAIYYCARKGYYKYDGGYYYAMDYWGQGTSVTVSS VL: DIQMTQSSSYLSVSLGGRVTITCKASDHINNWLAWYQQKPGNAPWLLISGATSLETGVPSRFSGSGSGKDYTLSISSLQTEDVATYYCQQYWSTPLTFGAGTKLELK	no binding (tested: 100 nM)	0.904	0.000167	185000
F4.22.6 (antibody, human IgG1, V domains shown, human-murine chimeric antibody, human IgG1 constant) VH: QVQLQQSGPELVKPGASVKISCKASGYAFSSFWMNWVKQRPGQGLEWIGRIYPGDGDTNYNGKFKGKATLTADKSSTTAYMHLSSLTSVDSAVYFCTRSVITAVVDWYFDVWGAGTTVTVSS VL: QIVLSQSPAILSASPGEKVTLTCRASSSVNFMHWYQQKPGSSPKPWIYATSNLASGAPARFSGSGSGTSYSLTISRVEAEDAAAYYCQQWSSYPIFTFGSGTKLEIK	no binding (tested: 100 nM)	5.94	0.00147	248000
F4.33.12 (antibody, human IgG1, V domains shown, human-murine chimeric antibody, human IgG1 constant) VH: QVQLQQSGAELVRPGSSVKISCKGSGYAFSSYWMNWVKQRPGQGLEWIGQIYPGDGDTNYNGKFKGKATLTADKSSSTAYMQLSSLTSEDSAVYFCARAGFYYGSDSSMDYWGQGTSVTVSS VL: not shown	no binding (tested: 100 nM)	3.45	0.000452	131000
F4.35.5 (antibody, human IgG1, V domains shown, human-murine chimeric antibody, human IgG1 constant) VH: EIQLQQSGPELVKPGASVKVSCKASGYAFTSYNMYWVKQSHGKSLEWIGYIDPYNGDTRYNQKFKGKATLTVDKSSSTAYMHLNSLTSEDSAVYYCTRSGTGRDYWGQGTTLTVSS VL: QIVLTQSPAIMSASPGEKVTMTCSASSSISYMFWFQQKPGSSPRLLIYDTSSLASGVPVRFSGSGSGTSYTLTISRMEAEDAATYYCQQWSNYPYTFGGGTKLEMK	no binding (tested: 100 nM)	15.3	0.00351	229000
F3.133.14 (antibody, human IgG1, V domains shown, human-murine chimeric antibody, human IgG1 constant) VH: QVQLQQPGAELVMPGASVKLSCKASGYTFTNYWMHWVKQRPGQGLEWIGEIDPSDYYANYNQKFKGKATLTVDKSSSTAYMQLSSLTSEDSAVYYCARSHYYANSYNYWGQGTTLTVSS VL: EIELTQSPTTMAASPGEKITITCSASSSISSDYLHWYQQKPGFSPKLLIYRTSNLASGLPARFSGSGSGTSYSLTIGTMEAEDVATYYCQQGSSVPRMLTFGAGTKLELK	no binding (tested: 100 nM)	0.974	8.84e-05	90800
F4.37.6 (antibody, human IgG1, V domains shown, human-murine chimeric antibody, human IgG1 constant) VH: QVQLQQSGAELARPGASVKLSCKASGYTFTSFWMQWLKQRPGQGLEWIGTIYPGDGDTRYTQKFKGKATLTADKSSNTAYMQLSSLASEDSAVYYCARGALSNYGGFAYWGQGTLVTVSA VL: NIVLTQSPASLAVSLGQRATISCRASESVDSYGHSFMHWYQQKPGQPPKLLIYLASNLESGVPARFSGSGSRTDFTLTIDPVEADDAATYYCQQNNEDPWTFGGGTKLEIK	no binding (tested: 100 nM)	9.11	0.00327	359000
F4.41.1 (antibody, human IgG1, V domains shown, human-murine chimeric antibody, human IgG1 constant) VH: QVQLQQSGAELVRPGTSVKVSCKASGYAFTNYLIEWVKQRPGQGLEWIGVINPGSGDTLYNEKFKGKATLTADKSSTTAYMQLSGLTSDVSAIYFCARSPPITTIVADYFDYWGQGTTLTVSS VL: DIQMTQTTSSLSASLGDRVTISCRASQDISNYLNWYQQKPDGTVKLLIYYTSRLHSGVPSRFSGSGSGADYSLTISNLEQEDIATYFCQQGKTLPYTFGGGTKLEIK	no binding (tested: 100 nM)	13.4	0.00239	179000
F4.48.12 (antibody, human IgG1, V domains shown, human-murine chimeric antibody, human IgG1 constant) VH: QMQLKESGPGLVAPSQSLSITCTVSGFSLTDYGVSWIRQPPGKGLEWLGVIWGSGSTFYNSALTSRLSISKDNSKSQVFLKMNSLQTADTAMYFCAKHHYYGGSFAMDYWGQGTSVTVSS VL: DIQMTQASSSLSASLGDRVTISCKTSQDISNYLNWYQQKPDGTFKLLIHYTSRLHSGVPSRFSGSGSGSDYSLTISNLEREDIATYFCQQGNSLPYTFGGGTKLEMK	no binding (tested: 100 nM)	0.487	0.000129	264000
F4.49.11 (antibody, human IgG1, V domains shown, human-murine chimeric antibody, human IgG1 constant) VH: DVQLRASGPGLVKPSQSLSLTCSVTGYSITSGYYWNWIRQFPGNKLEWMGCISYDGTNNYNPSLKNRISFTRDTSKNQFFLNLNSVTTEDSATYYCARRVYYRYDGVVDYWGQGTSVTVSS VL: ENVLTQSPAIMSASPGEKVTMTCSASSSVSYIHWYQQKSSTAPKLWIYDTSKLASGVPGRFSGSRSRNSYSLTISSMEAEDVATYYCFQGSGYPLTFGSGTKLEIK	no binding (tested: 100 nM)	17.6	0.00128	73000
F4.58.6 (antibody, human IgG1, V domains shown, human-murine chimeric antibody, human IgG1 constant) VH: QVQLQQPGAELVKPGASVKLSCKASGYTFTSYWMHWVKQRPGQGLEWIGEIDPSDSYSNYNQKFKGKATLTVDKSSSTAYMQLSSLTSEDSAVYYCARSNYGSSYGYFDVWGAGTTVTVSS VL: QIVLTQSPAIMSASPGEKVTMTCSVSSSLSYMHWYQQKPGTSPKRWIYDTSKLASGVPARFSGSGSGTSYSLTISSMEAEDAATYYCHQRSSYPTFGGGTKLEIK	no binding (tested: 100 nM)	13.9	0.002	143000
